Assay [1] has as its target GAS41 YEATS domain (residues 11–150) (human) (UniProt O95619). The assay can be described thus: MST.
Another assay addresses Flag-GAS41 H43S (human) (UniProt O95619). The assay can be described thus: co-IP.

As a reminder, the Kd is the concentration at which binding is half-saturated.

Chain of GAS41 YEATS domain (residues 11–150) (human) (O95619 11-150): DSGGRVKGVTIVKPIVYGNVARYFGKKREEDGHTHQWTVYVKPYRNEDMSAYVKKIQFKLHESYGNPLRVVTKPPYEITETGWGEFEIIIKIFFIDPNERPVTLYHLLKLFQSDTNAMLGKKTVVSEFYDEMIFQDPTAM
Chain of Flag-GAS41 H43S (human) (O95619 whole entry H43S): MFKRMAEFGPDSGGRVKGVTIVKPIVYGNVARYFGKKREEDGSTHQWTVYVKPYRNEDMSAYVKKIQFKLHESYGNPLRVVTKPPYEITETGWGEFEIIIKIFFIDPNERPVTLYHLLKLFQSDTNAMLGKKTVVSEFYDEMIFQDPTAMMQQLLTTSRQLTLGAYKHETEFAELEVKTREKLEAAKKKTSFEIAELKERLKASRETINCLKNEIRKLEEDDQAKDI

Consider “H3K27ac nucleosome core particle (from UniProt P04908 1-130; P62805 1-103) (complex)”, for which the Kd in assay [1] was determined as 0.229 µM.

In turn, “H3K27cr nucleosome core particle (from UniProt P04908 1-130; P62805 1-103) (complex)” gave a Kd in assay [1] of 0.158 µM. The same measure, in the same setting: as for “unmodified nucleosome core particle (from UniProt P04908 1-130; P62805 1-103) (complex)”, the figure is 0.913 µM.

“nucleosomal histone H3K27cr (endogenous) (from UniProt P68431 1-136) (natural protein)” gave a percent reduction of binding against Flag-GAS41 wt with Flag-GAS41 H43S (human) greater than 60%.

Source of the values: PMC11138481.
